Broadly, the EC50 (read off the curve) is the concentration needed to bring the measured effect to its halfway point. A high value points to lower potency in that assay.

The target in experiment [1] is T1, Sp35 fragment 417-498 human Fc (human, UniProt Q96FE5 423-504).
T1 construct: not shown: Fc, printed 'human Fc'
T1 sequence: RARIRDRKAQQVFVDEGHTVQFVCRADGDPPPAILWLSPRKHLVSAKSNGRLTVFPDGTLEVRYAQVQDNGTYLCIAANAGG
In words: fragment binding.

Experiment [2] concerns the target T2, human Sp35 protein expressed on transfected cells (human, UniProt Q96FE5 40-620).
T2 construct: also called huSp35; hLINGO-1
T2 sequence: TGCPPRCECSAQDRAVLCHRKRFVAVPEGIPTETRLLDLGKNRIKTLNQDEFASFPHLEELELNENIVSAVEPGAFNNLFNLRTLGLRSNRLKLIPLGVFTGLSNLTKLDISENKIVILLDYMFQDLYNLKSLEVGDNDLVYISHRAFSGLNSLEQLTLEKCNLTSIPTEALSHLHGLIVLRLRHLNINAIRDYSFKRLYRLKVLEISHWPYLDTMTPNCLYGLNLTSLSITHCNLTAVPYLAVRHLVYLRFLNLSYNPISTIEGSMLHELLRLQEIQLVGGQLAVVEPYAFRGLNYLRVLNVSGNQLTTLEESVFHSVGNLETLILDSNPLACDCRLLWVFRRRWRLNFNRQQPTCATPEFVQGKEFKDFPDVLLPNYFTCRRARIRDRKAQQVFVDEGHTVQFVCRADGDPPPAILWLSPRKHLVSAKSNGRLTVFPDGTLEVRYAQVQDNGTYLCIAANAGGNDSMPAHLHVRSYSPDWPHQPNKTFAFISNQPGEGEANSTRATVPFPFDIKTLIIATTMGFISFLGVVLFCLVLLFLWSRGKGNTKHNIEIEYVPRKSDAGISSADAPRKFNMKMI
Nature of the experiment: FACS direct binding, CHO cells stably transfected with human Sp35 (LINGO-1), mean fluorescence (MCF) against antibody concentration [panel Human]. How it is done:
(§1) In similar experiments, CHO cells stably transfected with Sp35 were used in FACS analysis to further characterize the binding properties of 3B5.2 and 7P1D5.1G9. […] Specifically, the 3B5.2 and 7P1D5.1G9 antibodies were tested for their ability to bind CHO cells transfected with, and expressing, human or murine Sp35. […] Additionally, the 3B5.2 antibody bound more cells as measured by the mean fluorescence (MCF) than 7P1D5.1G9.

A further experiment deals with T3, Ig region of Sp35 (Homo sapiens (Human), UniProt Q96FE5 425-499).
T3 sequence: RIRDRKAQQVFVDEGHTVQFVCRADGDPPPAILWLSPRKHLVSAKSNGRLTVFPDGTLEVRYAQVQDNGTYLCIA
In words: ELISA. The protocol:
Ovalbumin and BSA were used as controls. […] The affinity of these latter antibodies for mouse and rat Sp35 was restored to the level seen using human Sp35 when amino acid 419 of the mouse or rat Sp35 is changed from histidine (H) to arginine (R). Arginine is the amino acid at position 419 in human Sp35. […] AP substrate was then developed by 10 mg/ml 4 NPP in 0.1 M Glycine, 1 mM MgCl₂, 1 mM ZnCl₂, pH 10.5, and read at O.D. 405.
In similar experiments, monoclonal antibodies 3B5.2 and 7P1D5.1G9, as well as the Fab fragment of the 7P1D5.1G9 antibody were tested in ELISA assays for their ability to bind human Sp35, the entire LRR region of Sp35, the Ig region of Sp35 and murine Sp35. […] The 3B5.2 and 7P1D5. 1G9 monoclonal antibodies also bound the LRR region of Sp35.

For experiment [3], the target named is T4, mouse Sp35 protein expressed on transfected cells (mouse, UniProt Q9D1T0 36-614).
T4 construct: whole, on cells; also called mSp35; mLINGO-1
T4 sequence (looked up): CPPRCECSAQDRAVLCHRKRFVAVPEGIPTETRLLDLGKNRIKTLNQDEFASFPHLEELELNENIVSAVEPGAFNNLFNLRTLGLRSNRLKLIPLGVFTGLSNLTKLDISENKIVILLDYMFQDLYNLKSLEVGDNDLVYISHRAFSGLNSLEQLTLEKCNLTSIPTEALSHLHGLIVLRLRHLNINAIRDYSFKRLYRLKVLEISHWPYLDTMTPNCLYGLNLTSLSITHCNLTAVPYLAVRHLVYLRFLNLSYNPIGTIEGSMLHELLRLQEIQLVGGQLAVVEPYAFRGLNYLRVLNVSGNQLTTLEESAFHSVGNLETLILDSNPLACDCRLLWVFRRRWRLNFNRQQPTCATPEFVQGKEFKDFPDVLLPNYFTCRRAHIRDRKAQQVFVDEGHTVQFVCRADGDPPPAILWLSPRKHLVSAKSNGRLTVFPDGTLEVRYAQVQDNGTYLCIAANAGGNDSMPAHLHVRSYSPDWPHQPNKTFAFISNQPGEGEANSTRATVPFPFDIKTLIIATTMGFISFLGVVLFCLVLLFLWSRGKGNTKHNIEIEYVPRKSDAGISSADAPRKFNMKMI
In words: FACS direct binding, CHO cells stably transfected with murine Sp35 (LINGO-1), mean fluorescence (MCF) against antibody concentration [panel Murine]. How it is done: as §1

Another experiment deals with T5, AP-Sp35 (418-498) (Homo sapiens (Human), UniProt Q96FE5 424-504).
T5 sequence: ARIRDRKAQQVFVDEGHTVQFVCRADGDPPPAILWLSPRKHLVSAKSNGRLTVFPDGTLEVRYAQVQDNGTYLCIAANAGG
In words: fragment binding.

B1: D13 (full-length antibody with the Li13 variable region) (antibody, V domains shown)
VH: EVQLLESGGGLVQPGGSLRLSCAASGFTFSHYEMYWVRQAPGKGLEWVSRIVSSGGFTKYADSVKGRFTISRDNSKNTLYLQMNSLRAEDTAVYYCATEGDNDAFDIWGQGTTVTVSS
VL: DIQMTQSPATLSLSPGERATLSCRASQSVSSYLAWYQQKPGQAPRLLIYDASNRATGIPARFSGSGSGTDFTLTISSLEPEDFAVYYCQQRSNWPMYTFGQGTKLEIK
notes: also called 72-D03 (Dli13) Ab
For B1, the binding result in experiment [1] is listed as “no binding”.

B2: 3B5.2 monoclonal antibody (ATCC PTA-8106) (antibody, mouse IgG1, V domains shown)
VH: QVQLQQPGAELVRPGTSVKLSCRASGYTFTSYWMHWVKQRPGQGLEWIGVIDPSDSYTNYNQKFRGKATLTVDTSSSTAYMQLSSLTSEDSAVYYCARPYYGSHWFFDVWGTGTTVTVSS
VL: QIVLTQSPAIMSASPGEKVTMTCSASSRVSYVHWYQQKSGTSPKRWLYDTSNLASGVPARFGGNGSGTSYSLTISSMEAEDAATYYCQQWSTNPPTFGGGTKLEIK
modifications: N-linked glycosylation site in FR3 (appears glycosylated)
notes: murine IgG1/kappa; also called 2.P3B5.2
For the molecule B2, the half-maximal effective concentration (EC50 (read off the curve)) in experiment [2] and in experiment [3] was about 0.4 nM throughout. Moreover, in the experiment with Ig region of Sp35, the binding result is “no binding”.

B3: D06 (full-length antibody with the Li06 variable region) (antibody, V domains shown)
VH: EVQLLESGGGLVQPGGSLRLSCAASGFTFSEYPMDWVRQAPGKGLEWVSSIYSSGGSTVYADSIKGRFTISRDNSKNTLYLQMNSLRAEDTAVYYCAREGDSDAFDIWGQGTMVTVSS
VL: DIQMTQSPSTLSASVGDRVTITCRASQSISSWLAWYQQKPGKAPNLLIYAASSLRTGVPSRFRGSGSGTDFTLTISSLQPEDFATYYCLQDYSYPLTFGQGTKLEIK
notes: also called 34-F02 (Dli06) Ab
Take B3: in the experiment with AP-Sp35 (418-498), the binding result is “no binding”.

Values taken from patent US20090252748A1 (Biogen, published 2009).
